Test results reported in paper PMC6994090.

B1: Tbn#6 (structured_RNA)
RNA: UGAGGUGUUUGGGGUACUACUGGUAAAGGAUUUUCAUCUA
modifications: RNA (U for T); 2'-F C and U, 2'-OH A and G
B2: Tbn#3 (structured_RNA)
RNA: CCUUUGGUUCGGAUAAUUAUUAAGUAUUGUCUUCAUUCA
modifications: RNA (U for T); 2'-F C and U, 2'-OH A and G

Biological target: alpha-thrombin (human, UniProt P00734;P00734 328-363;364-622)
Test: SPR

| Binder | Kd [nM] |
| --- | --- |
| B1 | 1.7 |
| B2 | 1.4 |
